From PMC10397247

T1: 4H2859-bA
T1 chain: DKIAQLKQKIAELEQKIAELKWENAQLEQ

T2: 4H730-bA
T2 chain: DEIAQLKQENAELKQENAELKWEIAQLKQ

T3: 4H3041-bA
T3 chain: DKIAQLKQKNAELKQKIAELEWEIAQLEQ

T4: 4H3364-bA
T4 chain: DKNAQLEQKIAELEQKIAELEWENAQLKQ

T5: 4H2585-bA
T5 chain: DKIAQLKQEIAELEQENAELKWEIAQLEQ

T6: 4H3381-bA
T6 chain: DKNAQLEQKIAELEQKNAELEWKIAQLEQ

T7: 4H349-bA
T7 chain: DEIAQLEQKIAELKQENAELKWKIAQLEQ

T8: 4H56-bA
T8 chain: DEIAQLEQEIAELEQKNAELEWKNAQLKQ

T9: 4H949-bA
T9 chain: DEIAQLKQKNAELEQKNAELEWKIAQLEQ

T10: 4H796-bA
T10 chain: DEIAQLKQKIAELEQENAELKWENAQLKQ

T11: 4H3297-bA
T11 chain: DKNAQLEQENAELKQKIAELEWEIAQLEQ

T12: 4H264-bA
T12 chain: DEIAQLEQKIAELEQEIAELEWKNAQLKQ

T13: 4H932-bA
T13 chain: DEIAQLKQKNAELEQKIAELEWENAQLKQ

T14: 4H346-bH
T14 chain: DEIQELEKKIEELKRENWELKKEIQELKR

T15: 4H2931-bA
T15 chain: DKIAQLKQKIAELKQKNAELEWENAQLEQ

T16: 4H2760-bA
T16 chain: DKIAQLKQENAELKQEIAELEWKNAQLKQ

T17: P8A-bP
T17 chain: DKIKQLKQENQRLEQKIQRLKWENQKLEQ

T18: P7A-bP
T18 chain: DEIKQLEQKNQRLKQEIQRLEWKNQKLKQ

T19: P9A-bP
T19 chain: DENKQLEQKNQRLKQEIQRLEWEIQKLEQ

T20: P6A-bP
T20 chain: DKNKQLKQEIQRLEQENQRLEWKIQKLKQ


Columns and labels:
Assay in all cases: two-hybrid library CCNG1;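 note: natural log of median RNA to DNA barcode read ratio; higher means stronger binding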
4H2859-bA = target: T1, 4H2859-bA
4H730-bA = target: T2, 4H730-bA
4H3041-bA = target: T3, 4H3041-bA
4H3364-bA = target: T4, 4H3364-bA
4H2585-bA = target: T5, 4H2585-bA
4H3381-bA = target: T6, 4H3381-bA
4H349-bA = target: T7, 4H349-bA
4H56-bA = target: T8, 4H56-bA
4H949-bA = target: T9, 4H949-bA
4H796-bA = target: T10, 4H796-bA
4H3297-bA = target: T11, 4H3297-bA
4H264-bA = target: T12, 4H264-bA
4H932-bA = target: T13, 4H932-bA
4H346-bH = target: T14, 4H346-bH
4H2931-bA = target: T15, 4H2931-bA
4H2760-bA = target: T16, 4H2760-bA
P8A-bP = target: T17, P8A-bP
P7A-bP = target: T18, P7A-bP
P9A-bP = target: T19, P9A-bP
P6A-bP = target: T20, P6A-bP

Row | interaction score (4H2859-bA) | interaction score (4H730-bA) | interaction score (4H3041-bA) | interaction score (4H3364-bA) | interaction score (4H2585-bA) | interaction score (4H3381-bA) | interaction score (4H349-bA) | interaction score (4H56-bA) | interaction score (4H949-bA) | interaction score (4H796-bA) | interaction score (4H3297-bA) | interaction score (4H264-bA) | interaction score (4H932-bA) | interaction score (4H346-bH) | interaction score (4H2931-bA) | interaction score (4H2760-bA) | interaction score (P8A-bP) | interaction score (P7A-bP) | interaction score (P9A-bP) | interaction score (P6A-bP) | Binder
1 | -0.28 | -1.31 | 0.083 | -0.878 | 0.266 | -0.791 | 1.13 | -0.397 | -1.08 | -1.49 | -1.21 | -1.54 | -0.825 | 1.98 | -0.357 | 0.582 |  |  |  |  | DKIAQLKQEIAELEQENAELKWEIAQLEQ [4H2585-bA]
2 |  |  |  |  |  |  |  |  |  |  |  |  |  |  |  |  | -0.264 | 0.418 | -0.616 | -0.494 | DKNKQLKQEIQRLEQENQRLEWKIQKLKQ [P6A-bP]
